Laboratory results published in article PMC9107400.

Key:
[1] = target: N-terminal FLAG-tagged SMAD4 (UniProt Q13485); assay: co-IP; HEK293T cells transfected with FLAG-tagged SMAD4 (or its deletion constructs) and AR constructs, treated with DHT 10 nM and BMP7 50 ng/mL for 12 h; nuclear extracts incubated overnight at 4 °C with anti-FLAG or anti-AR antibody (IgG isotype as control) on protein G Dynabeads; Western blot for AR and SMAD4
[2] = target: AR65Q (human) (UniProt P10275); assay: co-IP; cell-free ('in vitro pull-down'): FLAG-SMAD4 (TNT wheat germ) and GST-AR constructs (E. coli S30) in vitro translated, equal amounts mixed overnight at 4 °C, captured with anti-GST antibody on protein G Dynabeads, Western blot with anti-FLAG

Row | binding compared to wild type [1] [%] | binding compared to wild type [2] [%] | Substance
1 | 50 |  | AR100Q (from UniProt P10275 1-920) (natural protein)
2 |  | 70 | FLAG-tagged SMAD4, in vitro translated (from UniProt Q13485 1-552) (natural protein)
